From patent US9820934B2, “Acid containing lipid formulations” (CAMURUS AB, priority 2007, dated 2017) come the findings set out here.

The data set in a line: Dissolution of GLP-1 in lipid formulation containing P80 and MeSulf (visual: homogenous, transparent). It is filed as physicochemical. The settings on record: SPC/GDO/P80/EtOH/PG/MeSulf=41.0/41.0/5.0/3.0/10.0/0.5 wt %; nominal loads 3, 4, 5 and 6 wt % GLP-1(0); room temperature, 1-3 days. An excerpt:
The lipid composition was the following: SPC/GDO/P80/EtOH/PG/MeSulf=41.0/41.0/5.0/3.0/10.0/0.5 wt %.

“GLP-1(7-36)amide, acetate salt [GLP-1(Ac)]”: the “Dissolution of GLP-1 in the lipid formulation” value is on record as “complete dissolution”.
